Entries after “also recorded” stand apart in the source; their conditions may differ.
Tested on: moDCs in co-culture with bronchial epithelial cells from COPD patients
Test: moDC / COPD bronchial epithelial cell co-culture treated with IL4I1, DC mRNA levels (Quantigene multiplex panel)
Type: cell-based, human
Conditions: IL4I1 serially diluted into basolateral media; 24 hr BEC pre-incubation, 24 hr co-culture with DCs (COPD donor #AB63); normalized to GAPDH; FIG. 2
Text: To differentiate airway epithelium in vitro, healthy smoker derived bronchial epithelial cells (Lonza lot #7F3833, 489, 237440, 899; Epithelix lot #13086) and COPD patient derived bronchial epithelial cells (Lonza lot #3313, 498, 3207, 3379; Epithelix lot #AB63, 472) were expanded according to the Lonza protocol with the following modification: the cells were subjected to two passages in Lonza BEBM media with supplements as reported in Widdicombe et al. (BioTechniques 39:249-255, August 2005). Cells were seeded onto collagen coated 0.4 um 96 transwell plates at 15,000 cells per 75 μl of the above media, and 235 μl of the same media was added to the basolateral receiver plate. After 3 days (with a single apical media change of the same volume), the apical media was completely removed in an airlift. To induce differentiation the cells were then cultured for 18 days with PneumaCult-ALI Medium (StemCell Technologies, #05001).
DC were generated as follows. […] After 48 hrs of cell culture, DC were lysed and mRNA levels were measured by microarray. […]
Co-cultures were initiated as described above. […] After 24 hr coculture the DCs were lysed and mRNA levels were measured with an Affymetrix Quantigene multiplex panel on a FlexMap 3D instrument. For each gene the relative luminescence was normalized to a housekeeper gene GAPDH.

B1: IL4I1: Human IL4I1 protein (R&D Systems #5684-AO) added to the co-culture media (protein, UniProt Q96RQ9 22-567, looked up)
L-amino-acid oxidase: QDWKAERSQDPFEKCMQDPDYEQLLKVVTWGLNRTLKPQRVIVVGAGVAGLVAAKVLSDAGHKVTILEADNRIGGRIFTYRDQNTGWIGELGAMRMPSSHRILHKLCQGLGLNLTKFTQYDKNTWTEVHEVKLRNYVVEKVPEKLGYALRPQEKGHSPEDIYQMALNQALKDLKALGCRKAMKKFERHTLLEYLLGEGNLSRPAVQLLGDVMSEDGFFYLSFAEALRAHSCLSDRLQYSRIVGGWDLLPRALLSSLSGLVLLNAPVVAMTQGPHDVHVQIETSPPARNLKVLKADVVLLTASGPAVKRITFSPPLPRHMQEALRRLHYVPATKVFLSFRRPFWREEHIEGGHSNTDRPSRMIFYPPPREGALLLASYTWSDAAAAFAGLSREEALRLALDDVAALHGPVVRQLWDGTGVVKRWAEDQHSQGGFVVQPPALWQTEKDDWTVPYGRIYFAGEHTAYPHGWVETAVKSALRAAIKINSRKGPASDTASPEGHASDMEGQGHVHGVASSPSHDLAKEEGSHPPVQGQLSLQNTTHTRTSH
- mRNA expression of dendritic cell genes (CXCL5, PTGES, S100A8, SERPINB2, THBS1): enhanced mRNA expression; also recorded: further enhances the expression
